Key:
[1] = Synthesis of N-caprinoyl-amino acid derivative, N-caprinoyl-D-amino acid and N-caprinoyl-peptide using purified acylamino acid synthetase, UPLC-MS detection; format: biochemical; design: key: +: Detected; −: Not detected; conditions: +ATP
Summary of the method: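 Purified enzyme (50 μg/mL) was incubated with 5 mM sodium caprate, 5 mM amino acid derivative, D-amino acid or peptide, 10 mM ATP, 10 mM MgCl2 and 1 mM DTT in 50 mM Tris-HCl, pH 8.0, for 24 h at 25 °C. After acidic methanol stop, UPLC-MS looked for the mass of the N-caprinoyl product.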

[2] = Synthesis of N-caprinoylamino acid using purified acylamino acid synthetase, UPLC-MS detection; format: biochemical; design: key: +: Detected; −: Not detected; conditions: +ATP
Summary of the method: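 Purified enzyme (50 μg) with 5 mM amino acid, 5 mM sodium caprate, 10 mM ATP, 10 mM MgCl2, 1 mM DTT in Tris-HCl pH 8.0, 24 h at 25° C; product detected by UPLC-MS (ESI-negative) as the N-caprinoyl amino acid mass signal.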

signal of molecular weight corresponding to N-caprinoyl compound ([1]; substrates Carnosine and sodium caprate): + | signal of molecular weight corresponding to N-caprinoyl compound ([1]; substrates D-Ala and sodium caprate): + | signal of molecular weight corresponding to N-caprinoyl compound ([1]; substrates D-Asp and sodium caprate): + | signal of molecular weight corresponding to N-caprinoyl compound ([1]; substrates D-Cys and sodium caprate): + | signal of molecular weight corresponding to N-caprinoyl compound ([1]; substrates D-Glu and sodium caprate): + | signal of molecular weight corresponding to N-caprinoyl compound ([1]; substrates D-Ile and sodium caprate): + | signal of molecular weight corresponding to N-caprinoyl compound ([1]; substrates D-Lys and sodium caprate): + | signal of molecular weight corresponding to N-caprinoyl compound ([1]; substrates L-Asp-L-Phe and sodium caprate): + | signal of molecular weight corresponding to N-caprinoyl compound ([1]; substrates L-Gly-L-Gly and sodium caprate): + | signal of molecular weight corresponding to N-caprinoyl compound ([1]; substrates Sarcosine and sodium caprate): + | signal of molecular weight corresponding to N-caprinoyl compound ([1]; substrates Taurine and sodium caprate): + | signal of molecular weight corresponding to N-caprinoyl amino acid ([2]; substrates GABA and sodium caprate): + | signal of molecular weight corresponding to N-caprinoyl amino acid ([2]; substrates Gly and sodium caprate): + | signal of molecular weight corresponding to N-caprinoyl amino acid ([2]; substrates L-Ala and sodium caprate): + | signal of molecular weight corresponding to N-caprinoyl amino acid ([2]; substrates L-Arg and sodium caprate): + | signal of molecular weight corresponding to N-caprinoyl amino acid ([2]; substrates L-Asn and sodium caprate): + | signal of molecular weight corresponding to N-caprinoyl amino acid ([2]; substrates L-Asp and sodium caprate): + | signal of molecular weight corresponding to N-caprinoyl amino acid ([2]; substrates L-Cys and sodium caprate): + | signal of molecular weight corresponding to N-caprinoyl amino acid ([2]; substrates L-Gln and sodium caprate): + | signal of molecular weight corresponding to N-caprinoyl amino acid ([2]; substrates L-Glu and sodium caprate): + | signal of molecular weight corresponding to N-caprinoyl amino acid ([2]; substrates L-His and sodium caprate): + | signal of molecular weight corresponding to N-caprinoyl amino acid ([2]; substrates L-Ile and sodium caprate): + | signal of molecular weight corresponding to N-caprinoyl amino acid ([2]; substrates L-Leu and sodium caprate): + | signal of molecular weight corresponding to N-caprinoyl amino acid ([2]; substrates L-Lys and sodium caprate): + | signal of molecular weight corresponding to N-caprinoyl amino acid ([2]; substrates L-Met and sodium caprate): + | signal of molecular weight corresponding to N-caprinoyl amino acid ([2]; substrates L-Phe and sodium caprate): + | signal of molecular weight corresponding to N-caprinoyl amino acid ([2]; substrates L-Pro and sodium caprate): + | signal of molecular weight corresponding to N-caprinoyl amino acid ([2]; substrates L-Ser and sodium caprate): + | signal of molecular weight corresponding to N-caprinoyl amino acid ([2]; substrates L-Thr and sodium caprate): + | signal of molecular weight corresponding to N-caprinoyl amino acid ([2]; substrates L-Trp and sodium caprate): + | signal of molecular weight corresponding to N-caprinoyl amino acid ([2]; substrates L-Tyr and sodium caprate): + | signal of molecular weight corresponding to N-caprinoyl amino acid ([2]; substrates L-Val and sodium caprate): + | signal of molecular weight corresponding to N-caprinoyl amino acid ([2]; substrates β-Ala and sodium caprate): +
B1: OsGH3-8: probable indole-3-acetic acid-amido synthetase GH3.8 from Oryza sativa, expressed in E. coli with N-terminal His-tag (protein, listed as Oryza sativa)
chain: MAVMTDVSTTGTALRTPAAGAVKEGDVEKLRFIDEMTTNVDAVQERVLGEILGRNAGTEYLTKCGLDGATDRAAFRAKVPVVSYDDLQPYIQRIANGDRSPILSTHPVSEFLTSSGTSAGERKLMPTIMDELDRRQLLYSLLMPVMNLYVPGLDKGKGLYFLFVKSETKTPGGLTARPVLTSYYKSDHFKNRPYDPYHNYTSPTAAILCADAFQSMYAQMVCGLCQRNDVLRLGAVFASGLLRAIRFLQLNWEQLADDIESGELTPRVTDPSVREAVAAILLPDPELAKLIRAECSKGDWAGIITRVWPNTKYLDVIVTGAMAQYIPTLEFYSGGLPMACTMYASSECYFGLNLRPMCDPSEVSYTIMPNMGYFEFLPVDETGAASGDATQLVDLARVEVGREYELVITTYAGLNRYRVGDVLRVTGFHNAAPQFRFVRRKNVLLSIESDKTDEAELQRAVERASALLRPHGASVVEYTSQACTKRIPGHYVIYWELLTKGAGATVVDADTLGRCCLEMEEALNTVYRQSRVADGSIGPLEIRVVRPGTFEELMDYAISRGASINQYKVPRCVTFPPIVELLDSRVVSSHFSPALPHWTPARRSE
modifications: N-terminal His-tag
notes: probable indole-3-acetic acid-amido synthetase GH3.8 from Oryza sativa, expressed in E. coli with N-terminal His-tag

— patent US12281340B2, “Method of producing N-acyl-amino group-containing compound” (AJINOMOTO CO., INC., priority 2018, dated 2025)
